Assays:
[1] = target: HLA-A*0201 class I monomer of the iTopia Epitope Discovery System; test: iTopia affinity assay (ED50)
[2] = target: HLA-A*0201 class I monomer of the iTopia Epitope Discovery System; test: iTopia off-rate assay

Substance: PRAME425-433 analog, Nva at P2 (peptide)
- fold reduction of affinity vs native peptide [1]: 3 fold

Substance: PRAME425-433 S425F L433Nle analog (peptide)
- fold increase of halftime of dissociation vs native peptide [2]: 2 fold
- fold reduction of ED50 vs native peptide [1]: > 4 fold
